Data as given in PMC2748320.

Target: C-terminal mycHis-tagged Rp1L1 (1-361), expressed in COS7 cells (mouse) (UniProt Q8CGM2)
Test: co-IP

UniProt Q8CGM2, sequence (Q8CGM2 1-361): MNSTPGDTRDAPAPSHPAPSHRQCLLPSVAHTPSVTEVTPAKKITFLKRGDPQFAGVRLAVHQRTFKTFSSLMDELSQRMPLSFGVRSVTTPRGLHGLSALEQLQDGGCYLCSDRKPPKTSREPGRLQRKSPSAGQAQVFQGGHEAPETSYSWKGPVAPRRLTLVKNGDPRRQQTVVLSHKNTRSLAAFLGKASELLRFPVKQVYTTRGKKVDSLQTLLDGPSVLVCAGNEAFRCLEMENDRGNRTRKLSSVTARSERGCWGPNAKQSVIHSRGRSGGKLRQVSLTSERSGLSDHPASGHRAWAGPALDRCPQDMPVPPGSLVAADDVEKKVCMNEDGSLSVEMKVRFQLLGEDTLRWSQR

percent of FLAG-Rp1 co-immunoprecipitated: 12%
Substance: N-terminal FLAG-tagged full-length Rp1, P56716 1-2095
